Where no end group is shown, it is not given here. [ ]: non-standard residue; d: D form. pT = C[C@@H](OP(=O)(O)O)[C@H](N)C(=O)O; pS = N[C@@H](COP(=O)(O)O)C(=O)O
Tests used:
pCdc25C = target: T1, pCdc25C (Homo sapiens); assay: ITC
T1 chain: EQPL[pT]PVTDL

trans-locked inhibitor = target: T2, trans-locked inhibitor (also: trans-locked alkene isostere, place not given here); assay: NMR titration
T2 chain: FF[pS]PR

cis-locked inhibitor = target: T3, cis-locked inhibitor (also: cis-locked alkene isostere, place not given here); assay: NMR titration
T3 chain: FF[pS]PR

B1: Pin1 PPIase domain (isolated) PPIase (protein)
chain: PARVRCSHLLVKHSQSRRPSSWRQEKITRTKEEALELINGYIQKIKSGEEDFESLASQFSDCSSAKARGDLGAFSRGQMQKPFEDASFALRTGEMSGPVFTDSGIHIILRTE
Kd (pCdc25C): > 1000 µM
Kd (trans-locked inhibitor): 66 µM
Kd (cis-locked inhibitor): 7 µM
